Results reported in US20250339531A1, “DUX4 POLYPEPTIDES AND NUCLEIC ACIDS FOR TREATING INFLAMMATORY AND AUTOIMMUNE CONDITIONS” (Fred Hutchinson Cancer Center, priority 2021, published 2025).

Experiments:
Assay in all cases: anti-FLAG co-IP LC-MS, exp 3, +IFNg +Dox
[1] = molecular target: Importin subunit beta-1 (Homo sapiens) (UniProt Q14974)
[2] = molecular target: Caprin-1 (Homo sapiens) (UniProt Q14444)
[3] = molecular target: Tubulin alpha-4A chain (Homo sapiens) (UniProt P68366)
[4] = molecular target: Plasminogen activator inhibitor 1 RNA-binding protein (Homo sapiens) (UniProt Q8NC51)
[5] = molecular target: Elongation factor 1-alpha 1 (Homo sapiens) (UniProt P68104)
[6] = molecular target: Heat shock 70 kDa protein 1B (Homo sapiens) (UniProt P0DMV9)
[7] = molecular target: Heterogeneous nuclear ribonucleoprotein H (Homo sapiens) (UniProt G8JLB6)
[8] = molecular target: Prelamin-A/C (Homo sapiens) (UniProt P02545)
[9] = molecular target: Ubiquitin carboxyl-terminal hydrolase 7 (Homo sapiens) (UniProt Q93009)
[10] = molecular target: 40S ribosomal protein S6 (Homo sapiens) (UniProt P62753)
[11] = molecular target: Ras GTPase-activating protein-binding protein 2 (Homo sapiens) (UniProt Q9UN86)
[12] = molecular target: Tubulin alpha chain (Homo sapiens) (UniProt F5H5D3)
[13] = molecular target: KN motif and ankyrin repeat domain-containing protein 2 (Homo sapiens) (UniProt Q63ZY3)
[14] = molecular target: Neutral cholesterol ester hydrolase 1 (Homo sapiens) (UniProt Q6PIU2)
[15] = molecular target: 60S ribosomal protein L18a (Homo sapiens) (UniProt Q02543)
[16] = molecular target: Elongation factor 1-gamma (Homo sapiens) (UniProt P26641)
[17] = molecular target: Splicing factor 3B subunit 3 (Homo sapiens) (UniProt Q15393)
[18] = molecular target: Plectin (Homo sapiens) (UniProt Q15149)
[19] = molecular target: Ras GTPase-activating protein-binding protein 1 (Homo sapiens) (UniProt Q13283)
[20] = molecular target: Tubulin beta-2A chain (Homo sapiens) (UniProt Q13885)
[21] = molecular target: Spectrin beta chain (Homo sapiens) (UniProt Q01082)
[22] = molecular target: AP-2 complex subunit beta (Homo sapiens) (UniProt P63010)
[23] = molecular target: Caveolae-associated protein 1 (Homo sapiens) (UniProt Q6NZI2)
[24] = molecular target: Cytoskeleton-associated protein 4 (Homo sapiens) (UniProt Q07065)
[25] = molecular target: Clathrin heavy chain (Homo sapiens) (UniProt Q00610)
[26] = molecular target: 60S acidic ribosomal protein P0 (Homo sapiens) (UniProt P05388)
[27] = molecular target: Tubulin beta-6 chain (Homo sapiens) (UniProt Q9BUF5)
[28] = molecular target: Plasminogen activator inhibitor 1 (Homo sapiens) (UniProt P05121)
[29] = molecular target: WD repeat-containing protein 1 (Homo sapiens) (UniProt O75083)
[30] = molecular target: Vimentin (Homo sapiens) (UniProt P08670)
[31] = molecular target: 60S ribosomal protein L19 (Homo sapiens) (UniProt P84098)
[32] = molecular target: 60 kDa heat shock protein, mitochondrial (Homo sapiens) (UniProt P10809)
[33] = molecular target: 60S ribosomal protein L8 (Homo sapiens) (UniProt P62917)
[34] = molecular target: Procollagen-lysine,2-oxoglutarate 5-dioxygenase 2 (Homo sapiens) (UniProt O00469)
[35] = molecular target: Neuroblast differentiation-associated protein AHNAK (Homo sapiens) (UniProt Q09666)
[36] = molecular target: Heat shock protein HSP 90-beta (Homo sapiens) (UniProt P08238)

Tubulin beta-2A chain (Homo sapiens), sequence (Q13885 whole entry): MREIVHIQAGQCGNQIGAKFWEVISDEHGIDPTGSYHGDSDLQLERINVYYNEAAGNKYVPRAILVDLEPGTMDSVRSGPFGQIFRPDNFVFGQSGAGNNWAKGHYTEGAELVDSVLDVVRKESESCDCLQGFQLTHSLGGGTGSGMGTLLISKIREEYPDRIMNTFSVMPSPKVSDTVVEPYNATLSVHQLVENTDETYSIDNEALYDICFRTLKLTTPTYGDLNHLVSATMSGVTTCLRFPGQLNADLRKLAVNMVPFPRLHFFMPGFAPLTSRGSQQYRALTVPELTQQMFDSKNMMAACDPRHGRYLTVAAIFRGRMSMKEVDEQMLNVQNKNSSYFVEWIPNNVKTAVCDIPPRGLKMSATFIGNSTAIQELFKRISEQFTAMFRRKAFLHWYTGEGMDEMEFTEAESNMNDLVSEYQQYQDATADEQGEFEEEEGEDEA
Splicing factor 3B subunit 3 (Homo sapiens), sequence (Q15393 whole entry): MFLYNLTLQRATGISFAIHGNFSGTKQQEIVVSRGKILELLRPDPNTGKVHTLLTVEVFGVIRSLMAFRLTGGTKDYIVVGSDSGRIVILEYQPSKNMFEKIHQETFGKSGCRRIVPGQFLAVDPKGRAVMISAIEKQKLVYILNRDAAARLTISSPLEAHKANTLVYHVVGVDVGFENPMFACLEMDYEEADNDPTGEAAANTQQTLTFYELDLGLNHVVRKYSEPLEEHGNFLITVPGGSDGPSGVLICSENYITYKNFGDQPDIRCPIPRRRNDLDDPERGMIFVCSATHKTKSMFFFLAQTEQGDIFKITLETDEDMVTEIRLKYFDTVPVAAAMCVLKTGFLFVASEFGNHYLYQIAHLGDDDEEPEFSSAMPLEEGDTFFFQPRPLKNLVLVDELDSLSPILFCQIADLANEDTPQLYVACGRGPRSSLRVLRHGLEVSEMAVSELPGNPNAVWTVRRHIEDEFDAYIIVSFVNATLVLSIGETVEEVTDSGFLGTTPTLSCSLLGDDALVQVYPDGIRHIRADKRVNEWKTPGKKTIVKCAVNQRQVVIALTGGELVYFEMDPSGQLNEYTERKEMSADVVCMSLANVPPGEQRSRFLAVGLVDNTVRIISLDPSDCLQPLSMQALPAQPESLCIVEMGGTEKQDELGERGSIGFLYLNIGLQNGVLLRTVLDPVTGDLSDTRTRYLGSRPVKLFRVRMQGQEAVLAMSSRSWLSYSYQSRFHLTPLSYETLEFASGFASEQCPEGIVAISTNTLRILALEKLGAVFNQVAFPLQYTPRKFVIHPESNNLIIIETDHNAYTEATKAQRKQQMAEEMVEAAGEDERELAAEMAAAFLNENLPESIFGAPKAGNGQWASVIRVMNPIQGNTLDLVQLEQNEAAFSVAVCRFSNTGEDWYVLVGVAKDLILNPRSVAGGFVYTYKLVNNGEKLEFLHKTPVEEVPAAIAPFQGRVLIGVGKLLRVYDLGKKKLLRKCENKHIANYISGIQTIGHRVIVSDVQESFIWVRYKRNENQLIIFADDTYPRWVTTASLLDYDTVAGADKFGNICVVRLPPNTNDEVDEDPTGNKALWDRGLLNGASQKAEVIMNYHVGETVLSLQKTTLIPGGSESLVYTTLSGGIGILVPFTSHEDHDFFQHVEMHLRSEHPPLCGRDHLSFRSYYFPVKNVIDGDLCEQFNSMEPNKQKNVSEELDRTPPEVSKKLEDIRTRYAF
Ubiquitin carboxyl-terminal hydrolase 7 (Homo sapiens), sequence (Q93009 whole entry): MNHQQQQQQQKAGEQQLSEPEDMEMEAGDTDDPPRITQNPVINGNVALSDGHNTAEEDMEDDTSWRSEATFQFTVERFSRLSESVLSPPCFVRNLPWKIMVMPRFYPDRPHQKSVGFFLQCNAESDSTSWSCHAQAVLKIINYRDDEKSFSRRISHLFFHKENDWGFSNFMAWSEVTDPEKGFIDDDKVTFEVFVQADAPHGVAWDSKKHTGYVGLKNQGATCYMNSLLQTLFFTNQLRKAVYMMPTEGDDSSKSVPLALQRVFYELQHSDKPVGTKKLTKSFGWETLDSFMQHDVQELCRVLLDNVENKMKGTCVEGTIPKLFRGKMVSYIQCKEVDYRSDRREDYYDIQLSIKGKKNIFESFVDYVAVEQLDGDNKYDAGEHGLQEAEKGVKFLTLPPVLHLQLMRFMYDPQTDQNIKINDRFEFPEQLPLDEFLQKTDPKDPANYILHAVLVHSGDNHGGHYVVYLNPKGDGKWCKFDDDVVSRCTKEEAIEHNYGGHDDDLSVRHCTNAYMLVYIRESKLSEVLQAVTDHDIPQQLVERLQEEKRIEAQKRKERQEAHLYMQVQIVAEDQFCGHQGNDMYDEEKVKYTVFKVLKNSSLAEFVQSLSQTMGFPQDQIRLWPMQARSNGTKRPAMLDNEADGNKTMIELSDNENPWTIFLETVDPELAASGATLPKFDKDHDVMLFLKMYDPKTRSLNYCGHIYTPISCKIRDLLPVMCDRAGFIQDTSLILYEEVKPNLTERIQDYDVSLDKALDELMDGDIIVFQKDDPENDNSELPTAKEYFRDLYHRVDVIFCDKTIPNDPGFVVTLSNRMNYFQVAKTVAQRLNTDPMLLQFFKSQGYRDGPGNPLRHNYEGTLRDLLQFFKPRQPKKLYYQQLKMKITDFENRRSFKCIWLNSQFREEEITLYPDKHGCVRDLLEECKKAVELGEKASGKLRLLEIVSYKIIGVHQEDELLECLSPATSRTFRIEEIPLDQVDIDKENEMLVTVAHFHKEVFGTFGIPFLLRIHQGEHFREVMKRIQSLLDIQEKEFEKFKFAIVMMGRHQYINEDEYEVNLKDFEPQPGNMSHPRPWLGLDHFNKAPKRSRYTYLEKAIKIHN
AP-2 complex subunit beta (Homo sapiens), sequence (P63010 2-937 limits assumed, one chain of several): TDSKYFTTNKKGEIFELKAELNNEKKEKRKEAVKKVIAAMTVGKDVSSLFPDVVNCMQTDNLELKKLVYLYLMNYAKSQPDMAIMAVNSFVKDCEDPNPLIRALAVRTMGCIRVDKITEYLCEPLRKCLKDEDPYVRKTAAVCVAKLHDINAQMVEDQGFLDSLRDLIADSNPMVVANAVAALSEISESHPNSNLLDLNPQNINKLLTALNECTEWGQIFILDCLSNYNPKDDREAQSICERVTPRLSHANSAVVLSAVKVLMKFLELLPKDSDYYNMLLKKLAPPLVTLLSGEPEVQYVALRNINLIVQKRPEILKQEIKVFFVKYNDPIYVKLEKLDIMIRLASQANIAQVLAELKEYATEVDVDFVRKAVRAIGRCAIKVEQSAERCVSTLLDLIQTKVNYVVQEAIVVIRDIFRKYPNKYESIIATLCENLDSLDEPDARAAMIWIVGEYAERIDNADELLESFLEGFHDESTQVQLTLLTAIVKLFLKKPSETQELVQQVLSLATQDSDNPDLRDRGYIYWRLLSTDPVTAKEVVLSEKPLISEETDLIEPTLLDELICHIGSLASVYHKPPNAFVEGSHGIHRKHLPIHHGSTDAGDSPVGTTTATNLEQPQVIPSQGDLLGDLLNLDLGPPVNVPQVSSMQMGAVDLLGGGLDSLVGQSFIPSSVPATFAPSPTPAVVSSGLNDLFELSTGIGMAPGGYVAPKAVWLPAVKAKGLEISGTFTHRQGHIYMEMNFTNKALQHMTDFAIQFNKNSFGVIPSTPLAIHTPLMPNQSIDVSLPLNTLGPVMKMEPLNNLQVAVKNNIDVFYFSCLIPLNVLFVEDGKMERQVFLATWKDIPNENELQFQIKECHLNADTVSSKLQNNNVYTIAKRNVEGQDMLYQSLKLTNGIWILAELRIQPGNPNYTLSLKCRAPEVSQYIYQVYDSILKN
Procollagen-lysine,2-oxoglutarate 5-dioxygenase 2 (Homo sapiens), sequence (O00469 26-737 limits assumed): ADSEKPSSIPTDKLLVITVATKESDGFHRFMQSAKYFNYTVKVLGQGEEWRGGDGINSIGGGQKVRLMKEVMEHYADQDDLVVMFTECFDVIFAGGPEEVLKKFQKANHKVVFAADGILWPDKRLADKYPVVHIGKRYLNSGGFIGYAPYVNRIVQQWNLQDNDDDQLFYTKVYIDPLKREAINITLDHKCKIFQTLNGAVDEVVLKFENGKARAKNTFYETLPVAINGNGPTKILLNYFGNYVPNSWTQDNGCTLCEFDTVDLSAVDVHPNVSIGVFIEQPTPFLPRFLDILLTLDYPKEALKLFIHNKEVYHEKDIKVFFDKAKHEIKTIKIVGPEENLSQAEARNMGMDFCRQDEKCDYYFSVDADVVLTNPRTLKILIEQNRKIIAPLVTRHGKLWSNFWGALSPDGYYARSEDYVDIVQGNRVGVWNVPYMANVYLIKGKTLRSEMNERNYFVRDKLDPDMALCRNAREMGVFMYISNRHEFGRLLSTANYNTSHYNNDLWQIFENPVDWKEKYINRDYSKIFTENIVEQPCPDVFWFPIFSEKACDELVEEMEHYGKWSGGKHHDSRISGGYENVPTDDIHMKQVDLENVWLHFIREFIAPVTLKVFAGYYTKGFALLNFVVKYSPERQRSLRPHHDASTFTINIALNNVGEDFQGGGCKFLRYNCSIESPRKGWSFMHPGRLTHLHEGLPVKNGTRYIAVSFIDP
Cytoskeleton-associated protein 4 (Homo sapiens), sequence (Q07065 whole entry): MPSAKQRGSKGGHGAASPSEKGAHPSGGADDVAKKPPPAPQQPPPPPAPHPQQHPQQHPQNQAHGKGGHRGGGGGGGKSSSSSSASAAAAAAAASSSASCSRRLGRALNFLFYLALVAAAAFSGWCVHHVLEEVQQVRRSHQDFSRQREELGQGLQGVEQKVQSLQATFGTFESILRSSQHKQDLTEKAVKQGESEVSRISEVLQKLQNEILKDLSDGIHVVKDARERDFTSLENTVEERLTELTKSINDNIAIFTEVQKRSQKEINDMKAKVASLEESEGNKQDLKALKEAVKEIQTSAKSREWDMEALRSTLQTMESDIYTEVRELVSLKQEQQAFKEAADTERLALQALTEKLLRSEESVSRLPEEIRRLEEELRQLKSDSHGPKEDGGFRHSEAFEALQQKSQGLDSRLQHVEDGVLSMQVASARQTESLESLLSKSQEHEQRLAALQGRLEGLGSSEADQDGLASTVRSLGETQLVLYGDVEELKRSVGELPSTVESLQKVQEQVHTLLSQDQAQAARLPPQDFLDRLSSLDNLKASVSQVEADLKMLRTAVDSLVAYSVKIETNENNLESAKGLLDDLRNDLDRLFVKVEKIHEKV

Substance: i3XFLAG-NLS-CTDaa154-424
- PSMs [1]: 5 PSMs
- PSMs [2]: 5 PSMs
- PSMs [3]: 39 PSMs
- PSMs [4]: 3 PSMs
- PSMs [5]: 21 PSMs
- PSMs [6]: 10 PSMs
- PSMs [7]: 7 PSMs
- PSMs [8]: 3 PSMs
- PSMs [9]: 6 PSMs
- PSMs [10]: 3 PSMs
- PSMs [11]: 3 PSMs
- PSMs [12]: 47 PSMs
- PSMs [13]: 3 PSMs
- PSMs [14]: 11 PSMs
- PSMs [15]: 2 PSMs
- PSMs [16]: 6 PSMs
- PSMs [17]: 3 PSMs
- PSMs [18]: 21 PSMs
- PSMs [19]: 2 PSMs
- PSMs [20]: 61 PSMs
- PSMs [21]: 9 PSMs
- PSMs [22]: 26 PSMs
- PSMs [23]: 3 PSMs
- PSMs [24]: 62 PSMs
- PSMs [25]: 11 PSMs
- PSMs [26]: 5 PSMs
- PSMs [27]: 39 PSMs
- PSMs [28]: 3 PSMs
- PSMs [29]: 2 PSMs
- PSMs [30]: 45 PSMs
- PSMs [31]: 2 PSMs
- PSMs [32]: 2 PSMs
- PSMs [33]: 2 PSMs
- PSMs [34]: 3 PSMs
- PSMs [35]: 4 PSMs
- PSMs [36]: 14 PSMs
